The text below walks through data of patent publication US20210388087A1 (Chugai, published 2021).

The labels stand for the following.
B1: CE115HA000 K64A one-arm antibody (antibody, human IgG1, kappa, L234A L235A, N297A, name in Kabat numbering)
heavy: QVQLVESGGGVVQPGRSLRLSCAASGFTFSNAWMHWVRQAPGKGLEWVAQIKAKSNNYATYYAESVAGRFTISRDDSKNSLYLQMNSLKTEDTAVYYCRYVHYGAYYGVDAWGQGTTVTVSSASTKGPSVFPLAPSSKSTSGGTAALGCLVKDYFPEPVTVSWNSGALTSGVHTFPAVLQSSGLYSLSSVVTVPSSSLGTQTYICNVNHKPSNTKVDKKVEPKSCDKTHTCPPCPAPEAAGGPSVFLFPPKPKDTLMISRTPEVTCVVVDVSHEDPEVKFNWYVDGVEVHNAKTKPREEQYASTYRVVSVLTVLHQDWLNGKEYKCKVSNKALPAPIEKTISKAKGQPREPQVYTLPPSRCELTKNQVSLSCAVKGFYPSDIAVEWESNGQPENNYKTTPPVLDSDGSFFLVSKLTVDKSRWQQGNVFSCSVMHEALHNHYTQKSLSLSPDYKDDDDK
chain: EPKSSDKTHTCPPCPAPELLGGPSVFLFPPKPKDTLMISRTPEVTCVVVDVSHEDPEVKFNWYVDGVEVHNAKTKPREEQYNSTYRVVSVLTVLHQDWLNGKEYKCKVSNKALPAPIEKTISKAKGQPREPQVCTLPPSRDELTKNQVSLWCLVKGFYPSDIAVEWESNGQPENNYKTTPPVLDSDGSFFLYSKLTVDKSRWQQGNVFSCSVMHEALHNRYTQKSLSLSP
light: DIVMTQSPLSLPVTPGEPASISCRSSQSLVHSNRNTYLHWYQQKPGQAPRLLIYKVSNRFSGVPDRFSGSGSGTDFTLKISRVEAEDVGVYYCGQGTQVPYTFGQGTKLEIKRTVAAPSVFIFPPSDEQLKSGTASVVCLLNNFYPREAKVQWKVDNALQSGNSQESVTEQDSKDSTYSLSSTLTLSKADYEKHKVYACEVTHQGLSSPVTKSFNRGEC
B2: CE115HA000 K64D one-arm antibody (antibody, human IgG1, kappa, L234A L235A, N297A, name in Kabat numbering)
heavy: QVQLVESGGGVVQPGRSLRLSCAASGFTFSNAWMHWVRQAPGKGLEWVAQIKAKSNNYATYYAESVDGRFTISRDDSKNSLYLQMNSLKTEDTAVYYCRYVHYGAYYGVDAWGQGTTVTVSSASTKGPSVFPLAPSSKSTSGGTAALGCLVKDYFPEPVTVSWNSGALTSGVHTFPAVLQSSGLYSLSSVVTVPSSSLGTQTYICNVNHKPSNTKVDKKVEPKSCDKTHTCPPCPAPEAAGGPSVFLFPPKPKDTLMISRTPEVTCVVVDVSHEDPEVKFNWYVDGVEVHNAKTKPREEQYASTYRVVSVLTVLHQDWLNGKEYKCKVSNKALPAPIEKTISKAKGQPREPQVYTLPPSRCELTKNQVSLSCAVKGFYPSDIAVEWESNGQPENNYKTTPPVLDSDGSFFLVSKLTVDKSRWQQGNVFSCSVMHEALHNHYTQKSLSLSPDYKDDDDK
chain: EPKSSDKTHTCPPCPAPELLGGPSVFLFPPKPKDTLMISRTPEVTCVVVDVSHEDPEVKFNWYVDGVEVHNAKTKPREEQYNSTYRVVSVLTVLHQDWLNGKEYKCKVSNKALPAPIEKTISKAKGQPREPQVCTLPPSRDELTKNQVSLWCLVKGFYPSDIAVEWESNGQPENNYKTTPPVLDSDGSFFLYSKLTVDKSRWQQGNVFSCSVMHEALHNRYTQKSLSLSP
light: DIVMTQSPLSLPVTPGEPASISCRSSQSLVHSNRNTYLHWYQQKPGQAPRLLIYKVSNRFSGVPDRFSGSGSGTDFTLKISRVEAEDVGVYYCGQGTQVPYTFGQGTKLEIKRTVAAPSVFIFPPSDEQLKSGTASVVCLLNNFYPREAKVQWKVDNALQSGNSQESVTEQDSKDSTYSLSSTLTLSKADYEKHKVYACEVTHQGLSSPVTKSFNRGEC
B3: CE115HA000 K64S one-arm antibody (antibody, human IgG1, kappa, L234A L235A, N297A, name in Kabat numbering)
heavy: QVQLVESGGGVVQPGRSLRLSCAASGFTFSNAWMHWVRQAPGKGLEWVAQIKAKSNNYATYYAESVSGRFTISRDDSKNSLYLQMNSLKTEDTAVYYCRYVHYGAYYGVDAWGQGTTVTVSSASTKGPSVFPLAPSSKSTSGGTAALGCLVKDYFPEPVTVSWNSGALTSGVHTFPAVLQSSGLYSLSSVVTVPSSSLGTQTYICNVNHKPSNTKVDKKVEPKSCDKTHTCPPCPAPEAAGGPSVFLFPPKPKDTLMISRTPEVTCVVVDVSHEDPEVKFNWYVDGVEVHNAKTKPREEQYASTYRVVSVLTVLHQDWLNGKEYKCKVSNKALPAPIEKTISKAKGQPREPQVYTLPPSRCELTKNQVSLSCAVKGFYPSDIAVEWESNGQPENNYKTTPPVLDSDGSFFLVSKLTVDKSRWQQGNVFSCSVMHEALHNHYTQKSLSLSPDYKDDDDK
chain: EPKSSDKTHTCPPCPAPELLGGPSVFLFPPKPKDTLMISRTPEVTCVVVDVSHEDPEVKFNWYVDGVEVHNAKTKPREEQYNSTYRVVSVLTVLHQDWLNGKEYKCKVSNKALPAPIEKTISKAKGQPREPQVCTLPPSRDELTKNQVSLWCLVKGFYPSDIAVEWESNGQPENNYKTTPPVLDSDGSFFLYSKLTVDKSRWQQGNVFSCSVMHEALHNRYTQKSLSLSP
light: DIVMTQSPLSLPVTPGEPASISCRSSQSLVHSNRNTYLHWYQQKPGQAPRLLIYKVSNRFSGVPDRFSGSGSGTDFTLKISRVEAEDVGVYYCGQGTQVPYTFGQGTKLEIKRTVAAPSVFIFPPSDEQLKSGTASVVCLLNNFYPREAKVQWKVDNALQSGNSQESVTEQDSKDSTYSLSSTLTLSKADYEKHKVYACEVTHQGLSSPVTKSFNRGEC
B4: CE115HA000 K64Q one-arm antibody (antibody, human IgG1, kappa, L234A L235A, N297A, name in Kabat numbering)
heavy: QVQLVESGGGVVQPGRSLRLSCAASGFTFSNAWMHWVRQAPGKGLEWVAQIKAKSNNYATYYAESVQGRFTISRDDSKNSLYLQMNSLKTEDTAVYYCRYVHYGAYYGVDAWGQGTTVTVSSASTKGPSVFPLAPSSKSTSGGTAALGCLVKDYFPEPVTVSWNSGALTSGVHTFPAVLQSSGLYSLSSVVTVPSSSLGTQTYICNVNHKPSNTKVDKKVEPKSCDKTHTCPPCPAPEAAGGPSVFLFPPKPKDTLMISRTPEVTCVVVDVSHEDPEVKFNWYVDGVEVHNAKTKPREEQYASTYRVVSVLTVLHQDWLNGKEYKCKVSNKALPAPIEKTISKAKGQPREPQVYTLPPSRCELTKNQVSLSCAVKGFYPSDIAVEWESNGQPENNYKTTPPVLDSDGSFFLVSKLTVDKSRWQQGNVFSCSVMHEALHNHYTQKSLSLSPDYKDDDDK
chain: EPKSSDKTHTCPPCPAPELLGGPSVFLFPPKPKDTLMISRTPEVTCVVVDVSHEDPEVKFNWYVDGVEVHNAKTKPREEQYNSTYRVVSVLTVLHQDWLNGKEYKCKVSNKALPAPIEKTISKAKGQPREPQVCTLPPSRDELTKNQVSLWCLVKGFYPSDIAVEWESNGQPENNYKTTPPVLDSDGSFFLYSKLTVDKSRWQQGNVFSCSVMHEALHNRYTQKSLSLSP
light: DIVMTQSPLSLPVTPGEPASISCRSSQSLVHSNRNTYLHWYQQKPGQAPRLLIYKVSNRFSGVPDRFSGSGSGTDFTLKISRVEAEDVGVYYCGQGTQVPYTFGQGTKLEIKRTVAAPSVFIFPPSDEQLKSGTASVVCLLNNFYPREAKVQWKVDNALQSGNSQESVTEQDSKDSTYSLSSTLTLSKADYEKHKVYACEVTHQGLSSPVTKSFNRGEC
B5: CE115HA000 K64E one-arm antibody (antibody, human IgG1, kappa, L234A L235A, N297A, name in Kabat numbering)
heavy: QVQLVESGGGVVQPGRSLRLSCAASGFTFSNAWMHWVRQAPGKGLEWVAQIKAKSNNYATYYAESVEGRFTISRDDSKNSLYLQMNSLKTEDTAVYYCRYVHYGAYYGVDAWGQGTTVTVSSASTKGPSVFPLAPSSKSTSGGTAALGCLVKDYFPEPVTVSWNSGALTSGVHTFPAVLQSSGLYSLSSVVTVPSSSLGTQTYICNVNHKPSNTKVDKKVEPKSCDKTHTCPPCPAPEAAGGPSVFLFPPKPKDTLMISRTPEVTCVVVDVSHEDPEVKFNWYVDGVEVHNAKTKPREEQYASTYRVVSVLTVLHQDWLNGKEYKCKVSNKALPAPIEKTISKAKGQPREPQVYTLPPSRCELTKNQVSLSCAVKGFYPSDIAVEWESNGQPENNYKTTPPVLDSDGSFFLVSKLTVDKSRWQQGNVFSCSVMHEALHNHYTQKSLSLSPDYKDDDDK
chain: EPKSSDKTHTCPPCPAPELLGGPSVFLFPPKPKDTLMISRTPEVTCVVVDVSHEDPEVKFNWYVDGVEVHNAKTKPREEQYNSTYRVVSVLTVLHQDWLNGKEYKCKVSNKALPAPIEKTISKAKGQPREPQVCTLPPSRDELTKNQVSLWCLVKGFYPSDIAVEWESNGQPENNYKTTPPVLDSDGSFFLYSKLTVDKSRWQQGNVFSCSVMHEALHNRYTQKSLSLSP
light: DIVMTQSPLSLPVTPGEPASISCRSSQSLVHSNRNTYLHWYQQKPGQAPRLLIYKVSNRFSGVPDRFSGSGSGTDFTLKISRVEAEDVGVYYCGQGTQVPYTFGQGTKLEIKRTVAAPSVFIFPPSDEQLKSGTASVVCLLNNFYPREAKVQWKVDNALQSGNSQESVTEQDSKDSTYSLSSTLTLSKADYEKHKVYACEVTHQGLSSPVTKSFNRGEC
B6: CE115HA000 K75R one-arm antibody (antibody, human IgG1, kappa, L234A L235A, N297A, name in Kabat numbering)
heavy: QVQLVESGGGVVQPGRSLRLSCAASGFTFSNAWMHWVRQAPGKGLEWVAQIKAKSNNYATYYAESVKGRFTISRDDSRNSLYLQMNSLKTEDTAVYYCRYVHYGAYYGVDAWGQGTTVTVSSASTKGPSVFPLAPSSKSTSGGTAALGCLVKDYFPEPVTVSWNSGALTSGVHTFPAVLQSSGLYSLSSVVTVPSSSLGTQTYICNVNHKPSNTKVDKKVEPKSCDKTHTCPPCPAPEAAGGPSVFLFPPKPKDTLMISRTPEVTCVVVDVSHEDPEVKFNWYVDGVEVHNAKTKPREEQYASTYRVVSVLTVLHQDWLNGKEYKCKVSNKALPAPIEKTISKAKGQPREPQVYTLPPSRCELTKNQVSLSCAVKGFYPSDIAVEWESNGQPENNYKTTPPVLDSDGSFFLVSKLTVDKSRWQQGNVFSCSVMHEALHNHYTQKSLSLSPDYKDDDDK
chain: EPKSSDKTHTCPPCPAPELLGGPSVFLFPPKPKDTLMISRTPEVTCVVVDVSHEDPEVKFNWYVDGVEVHNAKTKPREEQYNSTYRVVSVLTVLHQDWLNGKEYKCKVSNKALPAPIEKTISKAKGQPREPQVCTLPPSRDELTKNQVSLWCLVKGFYPSDIAVEWESNGQPENNYKTTPPVLDSDGSFFLYSKLTVDKSRWQQGNVFSCSVMHEALHNRYTQKSLSLSP
light: DIVMTQSPLSLPVTPGEPASISCRSSQSLVHSNRNTYLHWYQQKPGQAPRLLIYKVSNRFSGVPDRFSGSGSGTDFTLKISRVEAEDVGVYYCGQGTQVPYTFGQGTKLEIKRTVAAPSVFIFPPSDEQLKSGTASVVCLLNNFYPREAKVQWKVDNALQSGNSQESVTEQDSKDSTYSLSSTLTLSKADYEKHKVYACEVTHQGLSSPVTKSFNRGEC

The target in the assay is T1, CD3 epsilon homodimer protein (UniProt P07766 23-126).
T1 construct: immobilized on Sensor chip CM4 by amine coupling; also called CD3 (CD3 epsilon)
T1 sequence (P07766 23-126): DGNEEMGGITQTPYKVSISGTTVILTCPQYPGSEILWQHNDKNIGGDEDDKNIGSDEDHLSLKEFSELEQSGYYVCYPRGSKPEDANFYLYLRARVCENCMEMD
Put plainly: SPR (Biacore T200), CD3 epsilon homodimer on CM4 chip, one-arm antibody as analyte, 25 C.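 Note: homodimer attached to the sensor surface via amine coupling, HBS-EP+ used as running buffer during binding runs.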 For orientation: In SPR one partner is held on a chip, and binding of the other changes the refractive index at the surface.
Consider B1, for which the “ratio of amounts bound (altered form / CE115HA000)” value was 0.82.

As for B2, the “ratio of amounts bound (altered form / CE115HA000)” value is 0.72.

For the molecule B3, the “ratio of amounts bound (altered form / CE115HA000)” value stood at 0.84.

For B4, the “ratio of amounts bound (altered form / CE115HA000)” value came to 0.89.

Turning to B5, the “ratio of amounts bound (altered form / CE115HA000)” value was 0.74.

B6: the “ratio of amounts bound (altered form / CE115HA000)” value was determined as 1.01.
